Consider 1 molecule from US20200031947A1 (RINAT NEUROSCIENCE, published 2020).

Experiment [1] addresses T1, cynomolgus GITR (cyGITR), soluble analyte (cynomolgus).
T1 construct: Soluble analyte in SPR; construct not described; also called cGITR
The experiment is described as follows: SPR (Biacore T200), 37 C; antibody captured on anti-human Fc chip, GITR as analyte; 1:1 Langmuir fit. The procedure: (§1) The sensor chip preparation was performed at 25° C. with a running buffer of 10 mM HEPES, 150 mM NaCl, 0.05% (v/v) Tween-20, pH 7.4. An anti-human Fc sensor chip was made by activating all flow cells of a Biacore CM4 sensor chip with a 1:1 (v/v) mixture of 400 mM EDC and 100 mM NHS for 7 minutes, at a flow rate of 10 μL/min. An anti-human Fc reagent (Goat Anti-Human IgG Fc, SouthernBiotech Catalog #2081-01) was diluted to […] in 10 mM Sodium Acetate pH 4.5 and injected on all flow cells for 7 minutes at 20 μL/min. All flow cells were blocked with 100 mM ethylenediamine in 150 mM Borate buffer pH 8.5 for 7 minutes at 10 μL/min.
(§2) Antibodies were captured from undiluted supernatants onto downstream flow cells (flow cells 2, 3 and 4) at a flow rate of 10 μL/min for 2 minutes. Different antibodies were captured on each flow cell. Flow cell 1 was used as a reference surface. Following capture of antibodies, analyte (buffer, hGITR, or cyGITR) was injected at 30 μL/min on all flow cells for two minutes. After the analyte injection, dissociation was monitored for 10 minutes followed by regeneration of all flow cells with three 1-minute injections of 75 mM Phosphoric Acid. For each captured antibody, the following analyte injections were performed: buffer, 20 nM hGITR, 200 nM hGITR, 20 nM cyGITR and 200 nM cyGITR. Buffer cycles were collected for each captured antibody for double-referencing purposes (double-referencing as described in Myszka, J. Mol. Recognit. 12:279-284 (1999). The double-referenced sensorgrams were fit globally to a simple 1:1 Langmuir with mass transport binding model.

Experiment [2] addresses T2, human GITR (hGITR), soluble analyte (human, UniProt Q9Y5U5 26-162).
T2 sequence: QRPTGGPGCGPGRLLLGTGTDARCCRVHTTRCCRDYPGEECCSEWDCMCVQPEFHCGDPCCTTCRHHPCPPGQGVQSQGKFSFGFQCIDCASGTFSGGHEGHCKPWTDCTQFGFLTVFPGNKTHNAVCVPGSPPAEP
The experiment is described as above. The procedure: as §1, §2

The next experiment addresses T3, human GITR on cells (human, UniProt Q9Y5U5 26-162).
T3 construct: Endogenous on primary human T cells and Tregs, or transfected into Jurkat and 3A9 cells
T3 sequence: T2 sequence
The experiment can be described thus: flow cytometry on human T cells activated 48 h with CD3/28 beads; unlabeled antibody detected with APC goat anti-mouse Fc gamma F(ab')2. The text has this: Primary human lymphocytes were isolated from concentrated whole blood provided by the Stanford Blood Bank by first diluting blood 1:4 in Phosphate Buffered Saline (PBS, without Ca2+ and Mg2+). Peripheral Blood Mononuclear Cells (PBMC) were isolated using a Ficoll gradient underlay (Ficoll-Paque PLUS, GE Healthcare Life Sciences, Pittsburgh, Pa.). The harvested buffy layer was washed twice with PBS and counted. Cells were resuspended at 50*10e6c/mL in PBS+2% Fetal Bovine Serum (FBS) and processed with CD3 negative enrichment kit (Stem Cell Tech Vancouver, BC) according to manufacturer's instructions. After enrichment, cells were counted and frozen in aliquots of 10-20*10e6 in 90% FBS 10% DMSO freeze media for future use. For activation, a vial of cells from a donor T cell was thawed and rested overnight in R10c (RPMI 1640+10% FBS+1×NEAA+1×Sodium Pyruvate+1×Pen-Strep) at 1*10e6 cells/mL in a T75 flask. Cells were counted and stimulated for 48 hours with Dynabeads Human CD3/28 T cells activating beads at a 1:1 bead to cell ratio (Thermo Fisher). After 48 hours the cells were removed from media and washed with 1×PBS. Cells were titrated into a 96 well plate where they were stained with unlabeled mouse anti-human GITR antibodies (100-0.001 ug/mL) in PBS and incubated for 30 minutes at 37° c. […]
On the technique in general: In flow cytometry, cells or beads pass a laser one at a time.

B1: m10H2 (antibody, V domains shown)
VH: QVQLQQSGAELMKPGASVKISCTATGYTISRYWIEWVKQRPGHGLEWIGEILPGSGVTNYNEKFKGKATFTADTSSNTAYMQLSSLTSEDSAVYSCARKGTYYAMDYWGQGTSVTVSS
VL: DILLTQSPAILSVSPGERVSFSCRASQSIGTSIHWYQQRTNGSPRLLIKYASESVSGIPSRFSGSGSGTDFTLFINSVESEDIADYYCQQTYSWPATFGAGTKLELK
notes: In ADCC it is called hIgG1; also called anti-human GITR antibody m10H2; A647 labeled m10H2
For the molecule B1, in experiment [1], the Kd (usually the concentration at which binding is half-saturated) was over 100 nM, the koff (commonly a measure of how fast the partners let go of each other) worked out at 0.0073 s⁻¹ and the t1/2 amounted to 1.6 min. Also, in experiment [2], binding was put at a Kd of 2.2 nM; the koff came to 0.00077 s⁻¹; the kon (as a rule, the rate constant with which the complex forms) was 350000 M⁻¹ s⁻¹; the t1/2 came out at 15 min. In addition, the EC50 (read off the curve) (in general, the concentration needed to bring the measured effect to its halfway point) with human GITR on cells was about 0.07 µg/mL.
